{"source": "patent US20050215503", "about": "“HIF oligonucleotide decoy molecules” (published 2005)", "binders": {"B1": {"name": "decoy 945 (dsDNA)", "DNA 1": "CCAGCGTACGAGCCTCAGG", "DNA 2": "CCTGAGGCTCGTACGCTGG"}, "B2": {"name": "decoy 833/834 (dsDNA)", "DNA 1": "TCCAATGCGTGCAGTACT", "DNA 2": "AGTACTGCACGCATTGGA"}, "B3": {"name": "decoy 837/838 (dsDNA)", "DNA 1": "AGGCAACGTGCAGCCG", "DNA 2": "CGGCTGCACGTTGCCT"}, "B4": {"name": "decoy 835/836 (dsDNA)", "DNA 1": "GGCCAGACGTGCCACCGG", "DNA 2": "CCGGTGGCACGTCTGGCC"}, "B5": {"name": "decoy 987 (dsDNA)", "DNA 1": "CCAGCGTACGTGCGTCAGG", "DNA 2": "CCTGACGCACGTACGCTGG"}, "B6": {"name": "decoy 973 (dsDNA)", "DNA 1": "CCAGAGTACGTGCCTCAGG", "DNA 2": "CCTGAGGCACGTACTCTGG"}, "B7": {"name": "decoy 993 (dsDNA)", "DNA 1": "CCAGCGTACGTGCCACAGG", "DNA 2": "CCTGTGGCACGTACGCTGG"}, "B8": {"name": "decoy 855/856 (dsDNA)", "DNA 1": "GTGTGTACGTGCAGGAAA", "DNA 2": "TTTCCTGCACGTACACAC"}, "B9": {"name": "decoy 949 (dsDNA)", "DNA 1": "CCAGCGTACGGGCCTCAGG", "DNA 2": "CCTGAGGCCCGTACGCTGG"}, "B10": {"name": "decoy 951 (dsDNA)", "DNA 1": "CCAGCGTACGTCCCTCAGG", "DNA 2": "CCTGAGGGACGTACGCTGG"}, "B11": {"name": "decoy 995 (dsDNA)", "DNA 1": "CCAGCGTACGTGCCGCAGG", "DNA 2": "CCTGCGGCACGTACGCTGG"}, "B12": {"name": "decoy 867/868 (dsDNA)", "DNA 1": "TCCGTACGTGCTGCAC", "DNA 2": "GTGCAGCACGTACGGA"}, "B13": {"name": "decoy 965 (dsDNA)", "DNA 1": "CCAGCTTACGTGCCTCAGG", "DNA 2": "CCTGAGGCACGTAAGCTGG"}, "B14": {"name": "decoy 931 (dsDNA)", "DNA 1": "CCAGCGTCCGTGCCTCAGG", "DNA 2": "CCTGAGGCACGGACGCTGG"}, "B15": {"name": "decoy 847/848 (dsDNA)", "DNA 1": "GGAACAACGTGGAATTAG", "DNA 2": "CTAATTCCACGTTGTTCC"}, "B16": {"name": "decoy 805/806 (dsDNA)", "DNA 1": "CCCCCTCGGACGTGACTCGGACCAC", "DNA 2": "GTGGTCCGAGTCACGTCCGAGGGGG"}, "B17": {"name": "decoy 961 (dsDNA)", "DNA 1": "CCAGCGGACGTGCCTCAGG", "DNA 2": "CCTGAGGCACGTCCGCTGG"}, "B18": {"name": "decoy 807/808 (dsDNA)", "DNA 1": "TCTGTACGTGACCACACTCACCTC", "DNA 2": "GAGGTGAGTGTGGTCACGTACAGA"}, "B19": {"name": "decoy 873/874 (dsDNA)", "DNA 1": "TCCGTACGTGCTGCGT", "DNA 2": "ACGCAGCACGTACGGA"}, "B20": {"name": "decoy 953 (dsDNA)", "DNA 1": "CCAGCGTACGTACCTCAGG", "DNA 2": "CCTGAGGTACGTACGCTGG"}, "B21": {"name": "decoy 971 (dsDNA)", "DNA 1": "CCAGTGTACGTGCCTCAGG", "DNA 2": "CCTGAGGCACGTACACTGG"}, "B22": {"name": "decoy 829/830 (dsDNA)", "DNA 1": "AGGAGACGTGCTGCCT", "DNA 2": "AGGCAGCACGTCTCCT"}, "B23": {"name": "decoy 975 (dsDNA)", "DNA 1": "CCACCGTACGTGCCTCAGG", "DNA 2": "CCTGAGGCACGTACGGTGG"}, "B24": {"name": "decoy 979 (dsDNA)", "DNA 1": "CCATCGTACGTGCCTCAGG", "DNA 2": "CCTGAGGCACGTACGATGG"}, "B25": {"name": "decoy 967 (dsDNA)", "DNA 1": "CCAGCATACGTGCCTCAGG", "DNA 2": "CCTGAGGCACGTATGCTGG"}, "B26": {"name": "decoy 947 (dsDNA)", "DNA 1": "CCAGCGTACGCGCCTCAGG", "DNA 2": "CCTGAGGCGCGTACGCTGG"}, "B27": {"name": "decoy 893 (dsDNA)", "DNA 1": "CACGAGCGTACGTGCCTCAGG", "DNA 2": "CCTGAGGCACGTACGCTCGTG"}, "B28": {"name": "decoy 905 (dsDNA)", "DNA 1": "GATCGCCCTACGTGCTGTCTCAGATC", "DNA 2": "GATCTGAGACAGCACGTAGGGCGATC"}, "B29": {"name": "decoy 813/814 (dsDNA)", "DNA 1": "GCCCTACGTGCTGTCTCACACAGC", "DNA 2": "GCTGTGTGAGACAGCACGTAGGGC"}, "B30": {"name": "decoy 927 (dsDNA)", "DNA 1": "CCAGCGTTCGTGCCTCAGG", "DNA 2": "CCTGAGGCACGAACGCTGG"}, "B31": {"name": "decoy 943 (dsDNA)", "DNA 1": "CCAGCGTACTTGCCTCAGG", "DNA 2": "CCTGAGGCAAGTACGCTGG"}, "B32": {"name": "decoy 963 (dsDNA)", "DNA 1": "CCAGCCTACGTGCCTCAGG", "DNA 2": "CCTGAGGCACGTAGGCTGG"}, "B33": {"name": "decoy 877/878 (dsDNA)", "DNA 1": "ACCGTACGTGCTGCTA", "DNA 2": "TAGCAGCACGTACGGT"}, "B34": {"name": "decoy 957 (dsDNA)", "DNA 1": "CCAGCGCACGTGCCTCAGG", "DNA 2": "CCTGAGGCACGTGCGCTGG"}, "B35": {"name": "decoy 941 (dsDNA)", "DNA 1": "CCAGCGTACCTGCCTCAGG", "DNA 2": "CCTGAGGCAGGTACGCTGG"}, "B36": {"name": "decoy 815/816 (dsDNA)", "DNA 1": "GTGAGACGTGCGGCTTCCGTTTG", "DNA 2": "CAAACGGAAGCCGCACGTCTCAC"}, "B37": {"name": "decoy 929 (dsDNA)", "DNA 1": "CCAGCGTGCGTGCCTCAGG", "DNA 2": "CCTGAGGCACGCACGCTGG"}, "B38": {"name": "decoy 969 (dsDNA)", "DNA 1": "CCAGGGTACGTGCCTCAGG", "DNA 2": "CCTGAGGCACGTACCCTGG"}, "B39": {"name": "decoy 959 (dsDNA)", "DNA 1": "CCAGCGAACGTGCCTCAGG", "DNA 2": "CCTGAGGCACGTTCGCTGG"}, "B40": {"name": "decoy 859/860 (dsDNA)", "DNA 1": "ACCGTACGTGCTGATC", "DNA 2": "GATCAGCACGTACGGT"}, "B41": {"name": "decoy 911 (dsDNA)", "DNA 1": "CACAGCGTACGTGCTGTCTCA", "DNA 2": "TGAGACAGCACGTACGCTGTG"}, "B42": {"name": "decoy 801/802 (dsDNA)", "DNA 1": "GCCCTACGTGCTGTCTCA", "DNA 2": "TGAGACAGCACGTAGGGC"}, "B43": {"name": "decoy 831/832 (dsDNA)", "DNA 1": "TCCAATACGTGCAGTACT", "DNA 2": "AGTACTGCACGTATTGGA"}, "B44": {"name": "decoy 899 (dsDNA)", "DNA 1": "CGAGCGTACGTGCCTCAGG", "DNA 2": "CCTGAGGCACGTACGCTCG"}, "B45": {"name": "decoy 939 (dsDNA)", "DNA 1": "CCAGCGTACATGCCTCAGG", "DNA 2": "CCTGAGGCATGTACGCTGG"}, "B46": {"name": "decoy 821/822 (dsDNA)", "DNA 1": "CGCGAGCGTACGTGCCTCAGG", "DNA 2": "CCTGAGGCACGTACGCTCGCG"}, "B47": {"name": "decoy 871/872 (dsDNA)", "DNA 1": "ACCGTACGTGCTGCCA", "DNA 2": "TGGCAGCACGTACGGT"}, "B48": {"name": "decoy 955 (dsDNA)", "DNA 1": "CCAGCGTACGTTCCTCAGG", "DNA 2": "CCTGAGGAACGTACGCTGG"}, "B49": {"name": "decoy 977 (dsDNA)", "DNA 1": "CCAACGTACGTGCCTCAGG", "DNA 2": "CCTGAGGCACGTACGTTGG"}, "B50": {"name": "decoy 991 (dsDNA)", "DNA 1": "CCAGCGTACGTGCATCAGG", "DNA 2": "CCTGATGCACGTACGCTGG"}, "B51": {"name": "decoy 989 (dsDNA)", "DNA 1": "CCAGCGTACGTGCTTCAGG", "DNA 2": "CCTGAAGCACGTACGCTGG"}}}
{"biological_target": "HIF-1 (HIF-1alpha/HIF-1beta (ARNT) heterodimer) (Homo sapiens?, UniProt Q16665;P27540 Q16665:1-826,P27540:2-789)", "sequence (Q16665 whole entry, chain 1 of 2)": "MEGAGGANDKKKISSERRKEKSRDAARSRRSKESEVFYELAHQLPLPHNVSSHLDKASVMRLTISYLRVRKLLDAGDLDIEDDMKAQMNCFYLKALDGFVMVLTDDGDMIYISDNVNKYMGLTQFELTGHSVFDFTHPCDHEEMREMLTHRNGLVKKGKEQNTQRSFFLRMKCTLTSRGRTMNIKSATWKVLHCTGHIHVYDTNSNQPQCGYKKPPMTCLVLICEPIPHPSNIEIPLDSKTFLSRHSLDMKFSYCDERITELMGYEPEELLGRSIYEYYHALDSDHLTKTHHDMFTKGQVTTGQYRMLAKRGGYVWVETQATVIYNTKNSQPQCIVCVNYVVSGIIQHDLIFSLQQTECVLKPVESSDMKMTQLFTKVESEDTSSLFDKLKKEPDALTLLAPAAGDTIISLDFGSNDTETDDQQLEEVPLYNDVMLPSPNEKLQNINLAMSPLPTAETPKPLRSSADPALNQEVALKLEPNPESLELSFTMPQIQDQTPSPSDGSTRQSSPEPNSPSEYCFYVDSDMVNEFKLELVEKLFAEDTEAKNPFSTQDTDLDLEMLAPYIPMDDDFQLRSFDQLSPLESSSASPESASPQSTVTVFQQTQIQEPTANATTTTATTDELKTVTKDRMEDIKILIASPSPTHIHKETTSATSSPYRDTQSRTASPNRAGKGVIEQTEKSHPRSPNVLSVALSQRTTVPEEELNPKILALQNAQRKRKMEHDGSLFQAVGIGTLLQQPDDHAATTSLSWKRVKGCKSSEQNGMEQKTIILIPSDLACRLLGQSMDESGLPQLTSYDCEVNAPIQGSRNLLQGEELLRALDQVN", "sequence (P27540 2-789, chain 2 of 2)": "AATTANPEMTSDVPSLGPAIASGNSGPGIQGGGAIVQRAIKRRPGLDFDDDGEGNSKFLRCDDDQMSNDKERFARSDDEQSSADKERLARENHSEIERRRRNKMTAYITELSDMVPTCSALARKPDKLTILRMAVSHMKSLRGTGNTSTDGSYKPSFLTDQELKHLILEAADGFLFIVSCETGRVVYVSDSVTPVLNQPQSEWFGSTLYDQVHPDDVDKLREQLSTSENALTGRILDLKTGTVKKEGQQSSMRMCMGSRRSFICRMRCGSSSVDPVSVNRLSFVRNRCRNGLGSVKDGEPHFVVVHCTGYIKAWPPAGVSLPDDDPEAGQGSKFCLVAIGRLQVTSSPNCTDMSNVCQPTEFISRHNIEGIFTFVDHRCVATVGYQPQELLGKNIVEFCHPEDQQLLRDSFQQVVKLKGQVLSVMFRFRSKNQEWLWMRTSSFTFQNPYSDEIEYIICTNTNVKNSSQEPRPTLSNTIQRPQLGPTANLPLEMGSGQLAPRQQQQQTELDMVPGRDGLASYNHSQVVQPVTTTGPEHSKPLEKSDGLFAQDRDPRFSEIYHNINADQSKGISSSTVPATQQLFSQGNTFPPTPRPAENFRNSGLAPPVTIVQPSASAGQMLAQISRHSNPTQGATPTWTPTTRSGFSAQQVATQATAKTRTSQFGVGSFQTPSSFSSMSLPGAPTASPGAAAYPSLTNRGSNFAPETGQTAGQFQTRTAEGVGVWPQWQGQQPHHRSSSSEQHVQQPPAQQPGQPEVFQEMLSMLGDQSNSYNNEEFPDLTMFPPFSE", "test": "competition; TransAM", "conditions": "protein: extract; tags: none (endogenous, nuclear extract)", "description": "To assess the relative affinities of oligonucleotides for a HIF-1α containing complex, the HIF-1 TransAM assay (Active Motif, Catalog # 47096) was utilized. The assay was performed according to manufacturer's instructions. Briefly, a double-stranded oligonucletide containing the hypoxia response element (HRE) was immobilized on a 96-well plate. A nuclear extract containing HIF-1α complexes was incubated and allowed to bind to the immobilized oligonucleotide. The unbound material was washed away and the bound HIF-1α detected using an antibody that specificially recognizes HIF-1α. The anti-HIF-1α antibody was detected by a secondary antibody labeled with horseradish peroxidase (HRP), and the amount of HRP in each well was measured using a calorimetric substrate reaction and read using a microplate spectrophotometer.\nThe ability of candidate decoy molecules to compete for binding of HIF-1α to the HRE element-immobilized on the plate were measured and compared to reveal relative binding affinities. Candidate decoys were added in increasing molar ratios (relative to the amount of oligo immobilized on the plate) to compete for binding to the HIF-1α containing complexes. The amounts of decoys added to the assay included 0.625, 1.25, 2.5, 5, 10 and 20 fold molar excess. A well containing a competing decoy able to bind HIF-1α with high affinity would give a lower absorbance reading as compared to a decoy with low affinity for HIF-1α. All potential decoys were then compared and ranked in order to assess their relative binding affinities.\nThe screen was conducted using different decoy concentrations. For each UV absorbance reading, normalization was done by calculating the ratio of absorbance readings of sample vs. wild type control. The bigger ratio represents less competition of binding with HIF-1α when compared with wild-type control. The smaller (smaller than 1.0 or close to 1.0) ratios represent better binding or better competition.", "units": {"binding signal": "ratio"}}
{"binder": "B1", "binding signal": 3.14}
{"binder": "B2", "binding signal": 3.05}
{"binder": "B3", "binding signal": 3.74}
{"binder": "B4", "binding signal": 2.91}
{"binder": "B5", "binding signal": 1.16}
{"binder": "B6", "binding signal": 1.34}
{"binder": "B7", "binding signal": 0.93}
{"binder": "B8", "binding signal": 1.07}
{"binder": "B9", "binding signal": 2.73}
{"binder": "B10", "binding signal": 2.91}
{"binder": "B11", "binding signal": 0.92}
{"binder": "B12", "binding signal": 2.63}
{"binder": "B13", "binding signal": 1.61}
{"binder": "B14", "binding signal": 3.44}
{"binder": "B15", "binding signal": 3.02}
{"binder": "B16", "binding signal": 1.13}
{"binder": "B17", "binding signal": 1.65}
{"binder": "B18", "binding signal": 2.76}
{"binder": "B19", "binding signal": 2.33}
{"binder": "B20", "binding signal": 2.67}
{"binder": "B21", "binding signal": 1.05}
{"binder": "B22", "binding signal": 5.12}
{"binder": "B23", "binding signal": 1.63}
{"binder": "B24", "binding signal": 1.41}
{"binder": "B25", "binding signal": 1.53}
{"binder": "B26", "binding signal": 2.94}
{"binder": "B27", "binding signal": 0.94}
{"binder": "B28", "binding signal": 1.54}
{"binder": "B29", "binding signal": 4.6}
{"binder": "B30", "binding signal": 3.16}
{"binder": "B31", "binding signal": 2.83}
{"binder": "B32", "binding signal": 1.17}
{"binder": "B33", "binding signal": 2.23}
{"binder": "B34", "binding signal": 1.41}
{"binder": "B35", "binding signal": 3.45}
{"binder": "B36", "binding signal": 4.43}
{"binder": "B37", "binding signal": 2.35}
{"binder": "B38", "binding signal": 1.67}
{"binder": "B39", "binding signal": 2.07}
{"binder": "B40", "binding signal": 2.37}
{"binder": "B41", "binding signal": 1.16}
{"binder": "B42", "binding signal": 4}
{"binder": "B43", "binding signal": 3.36}
{"binder": "B44", "binding signal": 1.34}
{"binder": "B45", "binding signal": 2.93}
{"binder": "B46", "binding signal": 1.33}
{"binder": "B47", "binding signal": 2.21}
{"binder": "B48", "binding signal": 2.4}
{"binder": "B49", "binding signal": 1.43}
{"binder": "B50", "binding signal": 1.02}
{"binder": "B51", "binding signal": 1.21}
